Measured values taken from patent publication US20150306174A1 (NEW YORK BLOOD CENTER, published 2015).
Ends that are not written are not given here.

Legend:
[1] = target: T1, C34 (HIV-1); assay: CD thermal denaturation monitored at 222 nm
T1 construct: also called CHR-peptide C34; C-peptide C34

[2] = target: T1, C34; assay: CD spectroscopy of the N-peptide/C-peptide mixture in PBS

Row | Binder | Tm of the complex [1] [° C.] | binding result [2]
1 | N28Fd trimer (designed binder, also: trimer, It gives the full length as 55 residues; also called FdN28Fd1) IEAQQHLLQLTVWGIKQLQARILAVERYGYIPEAPRDGQAYVRKDGEWVLLSTFL | 62.2 | –
2 | IEAQQHLLQLTVWGIKQLQARILAVERY (Residue numbers count on HIV-1 HXB2 gp160; also called N28 peptide; free N28 peptide) [N28] | – | no binding (tested: 10 µM)
